From patent US20250163186A1 (PHYLAXIS BIOSCIENCE, published 2025)
Read-outs that look alike come from different tables or passages of the source.

How the values were obtained:
human IgE [1] = target: T1, human IgE (human, UniProt P01854 1-428); assay: SPR (Biacore T200, 25 C), IgE captured on protein L, antibody as analyte, 1:1 fit
T1 construct: written under the same molecule; also called IgE (Abcam ab65866); soluble IgE
Experimental: (§1) All experiments were done using a Biacore T200 instrument with a CM5 chip at 25° C., Flow Cell (FC) 1 was used as the reference for FC2, and FC3 for FC4.
Protein L (15 mg/mL) was diluted (1:50 dilution, 0.3 mg/mL diluted concentration) in 10 mM sodium acetate buffer at pH 4.5 and immobilized onto FCs 1 and 2 to a level of ˜13000 RU, using the standard amine coupling chemistry. […] PBS-P was used as the capture running buffer. Overnight kinetics were performed for all analytes in the presence of PBS-P. The flow rate of all analyte solutions was maintained at 50 μL/min. The contact and dissociation times used were 120 seconds and 600 seconds, respectively. Glycine pH 2.0 was injected for 20 seconds for surface regeneration. This regeneration condition takes away all captured ligand. Therefore, fresh ligand solution was captured in the beginning of each injection cycle. Injected analyte concentrations are from 50 nM to 0.098 nM (two-fold dilutions). All analytes were injected in duplicate. Sensorgrams from the overnight kinetics were evaluated by using 1:1 kinetics model fitting.

human IgE [2] = target: T1, human IgE; assay: ELISA, plate-coated IgE
[3] = target: T2, recombinant human FCER1A-His (ACRO FCA-H5228) (human, UniProt P12319 26-205); assay: SPR, antibody alone injected over captured FCER1A
T2 construct: Bought protein; also called FceRIA; IgE receptor
T2 sequence: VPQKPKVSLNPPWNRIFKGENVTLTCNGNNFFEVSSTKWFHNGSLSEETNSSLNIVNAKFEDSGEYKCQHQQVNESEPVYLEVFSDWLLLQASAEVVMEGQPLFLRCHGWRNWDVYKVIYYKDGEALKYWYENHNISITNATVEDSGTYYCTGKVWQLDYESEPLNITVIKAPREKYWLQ
Experimental: as §1
(§2) Anti-His antibody (1 mg/ml stock) was diluted (1:100 dilution, 0.01 mg/ml diluted concentration) in 10 mM sodium acetate buffer at pH 4.5 and immobilized onto FCs 1 and 2 to a level of ˜14000 RU, using the standard amine coupling chemistry. […] FCER1A (0.4 mg/ml stock concentration) was diluted ([…], ˜0.004 mg/ml diluted concentration) in PBS-P captured onto FC2 to levels of ˜130 RU. PBS-P was used as the capture running buffer. Overnight kinetics were performed for all analytes in the presence of PBS-P. The flow rate of all analyte solutions was maintained at 50 μL/min. The contact and dissociation times used were 120 seconds and 300 seconds, respectively. Glycine pH 1.5 was injected for 20 seconds for surface regeneration. This regeneration condition takes away all captured FCER1A. Therefore, fresh FCER1A was captured in the beginning of each injection cycle. […] All analytes were injected in duplicate. […] Sensorgrams from the overnight kinetics were plotted for further evaluation.

human IgE [4] = target: T1, human IgE; assay: ELISA, plate-coated IgE, apparent Kd (one site fit)
Text: The data was plotted and analyzed using GraphPad Prism analysis software.

human IgE [5] = target: T1, human IgE; assay: SPR, blocks binding of 5 nM IgE to captured FCER1A
Experimental: as §1, §2

human IgE [6] = target: T1, human IgE; assay: ELISA, plate-coated IgE, apparent Kd (one site fit); remark: listed apart in the source
human IgE [7] = target: T1, human IgE; assay: SPR (Biacore T200, 37 C), IgE medium density (~114 RU) on protein L, 1:1 fit
Experimental: (§3) All experiments were done using a Biacore T200 instrument with a CM5 chip at 37° C. except immobilization of Protein L, which was done at 25° C.
(§4) For this study Flow Cell (FC) 1 was used as the reference for FC2, FC3 and FC4. Protein L (15 mg/ml stock concentration) was diluted (1:50 dilution, 0.3 mg/ml diluted concentration) in 10 mM sodium acetate buffer at pH 4.5 and immobilized onto all FCs to a level of ˜14000 RU, using the standard amine coupling chemistry. HBS-P (10 mM Hepes, pH 7.4, 150 mM NaCl, 0.05% v/v surfactant P20) was used as the immobilization running buffer. […] HBS-P was used as the capture running buffer. Overnight kinetics were performed for all analytes in the presence of HBS-P. The flow rate of all analyte solutions was maintained at 50 μL/min. The contact and dissociation times used were 120 seconds and 600 seconds, respectively. Glycine pH 1.5 was injected for 20 seconds for surface regeneration. This regeneration condition takes away all captured ligand. Therefore, fresh ligand solution was captured in the beginning of each injection cycle. Injected analyte concentrations are from 80 nM to 0.01953 nM (four-fold dilutions). All analytes were injected in duplicate.

human IgE [8] = target: T1, human IgE; assay: SPR (Biacore T200, 37 C), IgE high density (~1400 RU) on protein L, 1:1 fit
Experimental: as §3, §4

human IgE [9] = target: T1, human IgE; assay: ELISA, human IgE coated
Experimental: (§5) The following day, plates were blocked with 1% BSA in PBS for 30 min-1 hour. […] Afterwards, the plates were PBST washed with the plate washer and detected with Peroxidase AffiniPure Donkey Anti-Human IgG, Fcγ fragment specific secondary detection antibody. Room temperature TMB was added and OD650 was measured using the Emax plate reader. […] Room temperature TMB was added and OD650 was measured using the Emax plate reader. The data was plotted and analyzed using GraphPad Prism analysis software.

human IgE [10] = target: T1, human IgE; assay: ELISA, plate-coated IgE; remark: listed apart in the source
human IgE [11] = target: T1, human IgE; assay: ELISA, blocks binding of 5 nM IgE to coated FCER1A
Experimental: as §5

human IgE [12] = target: T1, human IgE; assay: SPR (Biacore T200, 37 C), IgE low density (~14 RU) on protein L, 1:1 fit
Experimental: as §3, §4

[13] = target: recombinant human anti-hapten dinitrophenol (DNP) IgE (rhIgE) (human, UniProt P01854-1 1-428); assay: cell-based or functional assay
Sequence of recombinant human anti-hapten dinitrophenol (DNP) IgE (rhIgE) (P01854 other isoform, or with tags, fused parts or gaps): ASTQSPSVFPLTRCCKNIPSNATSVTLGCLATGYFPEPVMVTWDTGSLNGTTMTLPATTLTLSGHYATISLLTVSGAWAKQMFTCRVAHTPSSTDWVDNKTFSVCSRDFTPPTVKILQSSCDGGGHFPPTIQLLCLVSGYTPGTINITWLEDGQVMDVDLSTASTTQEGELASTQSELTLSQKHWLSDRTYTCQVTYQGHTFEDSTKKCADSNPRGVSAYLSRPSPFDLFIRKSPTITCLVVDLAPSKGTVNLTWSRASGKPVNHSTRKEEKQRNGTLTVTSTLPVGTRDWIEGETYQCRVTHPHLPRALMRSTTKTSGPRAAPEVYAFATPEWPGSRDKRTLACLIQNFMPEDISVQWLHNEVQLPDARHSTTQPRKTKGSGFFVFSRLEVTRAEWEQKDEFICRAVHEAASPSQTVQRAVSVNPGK

[14] = target: human IgE pre-complexed to FCER1A on the surface of human mast cells (human, UniProt P01854-1 1-428); assay: flow cytometry on IgE-loaded human mast cells
Sequence of human IgE pre-complexed to FCER1A on the surface of human mast cells (P01854 other isoform, or with tags, fused parts or gaps): as above

human IgE [15] = target: T1, human IgE; assay: flow cytometry, blocks binding of 5 nM IgE to FCER1A on human mast cells
human IgE [16] = target: T1, human IgE; assay: SPR, blocks binding of 5 nM IgE to captured FCER1A; remark: listed apart in the source
Experimental: as §3
Sensorgrams from the overnight kinetics were plotted for further evaluation.

[17] = target: human IgM (Novus, NBP1-97056) (human, UniProt P01871-1 1-453); assay: ELISA, plate-coated immunoglobulin
Sequence of human IgM (Novus, NBP1-97056) (P01871 other isoform, or with tags, fused parts or gaps): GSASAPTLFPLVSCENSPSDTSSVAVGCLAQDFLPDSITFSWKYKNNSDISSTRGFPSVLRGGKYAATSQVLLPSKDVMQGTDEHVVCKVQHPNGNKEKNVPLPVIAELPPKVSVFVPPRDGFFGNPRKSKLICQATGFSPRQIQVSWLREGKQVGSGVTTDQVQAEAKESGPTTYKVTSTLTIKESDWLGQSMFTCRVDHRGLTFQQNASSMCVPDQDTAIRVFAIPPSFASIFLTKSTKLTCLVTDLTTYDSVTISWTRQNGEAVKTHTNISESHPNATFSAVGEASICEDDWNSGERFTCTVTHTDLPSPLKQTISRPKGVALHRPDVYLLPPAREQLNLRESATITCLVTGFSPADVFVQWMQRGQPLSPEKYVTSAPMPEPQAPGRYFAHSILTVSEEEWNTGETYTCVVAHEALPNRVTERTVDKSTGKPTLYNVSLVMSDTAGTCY

human IgE [18] = target: T1, human IgE; assay: ELISA, blocks binding of 5 nM IgE to coated FCER1A; remark: listed apart in the source
Experimental: as §5

human IgE [19] = target: T1, human IgE; assay: ELISA, human IgE coated; remark: listed apart in the source
Experimental: as §5

[20] = target: T3, chimeric cynomolgus monkey IgE (cynomolgus monkey (Macaca fascicularis)); assay: ELISA, plate-coated cynomolgus IgE, apparent Kd (one site fit)
T3 construct: domain: CH1-4 constant domains; Generated in house in place of commercial cynomolgus IgE; also called cyno IgE

human IgE [21] = target: T1, human IgE; assay: ELISA, blocks binding of 5 nM IgE to coated FCER2/CD23
Experimental: as §5

[22] = target: T4, human IgE pre-complexed to FceRII/CD23 on the surface of RPMI 8866 cells (human, UniProt P01854 1-428; P06734 1-321); assay: flow cytometry, IgE-loaded RPMI 8866 cells
T4 construct: also called IgE:CD23 complexes; IgE in complex with CD23
T4 sequence (P01854 other isoform, or with tags, fused parts or gaps, chain 1 of 2): as the sequence (P01854 other isoform, or with tags, fused parts or gaps) above
T4 sequence (P06734 whole entry, chain 2 of 2): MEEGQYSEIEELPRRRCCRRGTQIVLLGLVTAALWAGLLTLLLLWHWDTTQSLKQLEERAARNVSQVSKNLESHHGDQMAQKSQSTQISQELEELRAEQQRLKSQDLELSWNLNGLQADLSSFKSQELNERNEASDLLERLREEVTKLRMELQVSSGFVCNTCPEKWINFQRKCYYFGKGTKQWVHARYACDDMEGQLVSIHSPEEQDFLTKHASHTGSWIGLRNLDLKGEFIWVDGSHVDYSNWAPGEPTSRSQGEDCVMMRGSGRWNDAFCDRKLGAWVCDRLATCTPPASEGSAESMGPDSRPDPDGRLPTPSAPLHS
Experimental: The washed cells were diluted to 0.8×10⁶ cells/mL. 50 μL of this cell suspension was then transferred to wells of a round-bottom 96-well assay plate (40 k cells/well). 50 μL of titrated test articles (diluted to 1 μM and titrated across 1:3 in FACS buffer) were added to the RPMI 8866 cells which produced a 2-fold dilution of the antibody concentrations from the titration series. The final starting concentration was 500 nM with a total of 11 points in the titration. […] The cells were incubated with secondary detection antibodies for 20 minutes then washed once, resuspended in 60 μL of FACS Buffer, and analyzed on a NovoCyte 3000 flow cytometer (ACEA Biosciences, Inc.).

[23] = target: human IgG2 (Athensresearch, 16-16-090707-2) (human, UniProt P01859-1 1-326 = IgG part); assay: ELISA, human IgG2 coated

T1 sequence (P01854 other isoform, or with tags, fused parts or gaps limits assumed, form in doubt): as the sequence (P01854 other isoform, or with tags, fused parts or gaps) above

| Binder | Bmax (OD 650 nm) (human IgE [2]) | binding result [3] | Kd (human IgE [4]) | IC50 (human IgE [5]) | Kd (human IgE [6]) | Bmax (human IgE [9]) | Kd (human IgE [9]) | Bmax (OD 650 nm) (human IgE [10]) | IC50 (human IgE [11]) | Activation IC50 (nM), CD63 on mast cells [13] | binding result [14] | IC50 (human IgE [16]) | other results |
| --- | --- | --- | --- | --- | --- | --- | --- | --- | --- | --- | --- | --- | --- |
| hzB10v14-IgG1 DSELF Fc region (cx12739) (Fc fusion, hzB10v14 VHH + GGGG linker + human IgG1 Fc with G236D/S267E/L328F; the Fc drives homodimer formation (bivalent); also called hzB10v14-DSELF; hzB10v14-IgG DSELF Fc) EVQLLESGGGEVQPGGSLRLSCVASGLTFSSYNMGWLRQAPGKEREFVGLSGSSSTSTYYADSVKGRFTISRDNSKNTVYLQMNSLKPEDTAVYYCAARRLLSTYWSDRSWDFWGQGTQVTVEPGGGGDKTHTCPPCPAPELLDGPSVFLFPPKPKDTLMISRTPEVTCVVVDVEHEDPEVKFNWYVDGVEVHNAKTKPREEQYNSTYRVVSVLTVLHQDWLNGKEYKCKVSNKAFPAPIEKTISKAKGQPREPQVYTLPPSREEMTKNQVSLTCLVKGFYPSDIAVEWESNGQPENNYKTTPPVLDSDGSFFLYSKLTVDKSRWQQGNVFSCSVMHEALHNHYTQKSLSLSPGK | 0.742 OD 650 nm | no binding (tested: 200 nM) | 0.197 nM | ~2.4 nM |  |  |  |  |  |  |  |  | Kd (human IgE [1]): 0.8 nM; koff (human IgE [1]): 0.000288 s⁻¹; kon (human IgE [1]): 359000 M⁻¹ s⁻¹ |
| hzB10v40-IgG1 DSELF Fc region (cx13032) (Fc fusion, hzB10v40 VHH + GGGG linker + IgG1 DSELF Fc; described as bivalent; also called hzB10v40-DSELF; hzB10v40-IgG DSELF Fc) EVQLLESGGGEVQPGGSLRLSCVASGLTFSSYNMGWLRQAPGKEREFVGLSGSSSTSTYYAESVKGRFTISRDNAKNTVYLQMTSLRAEDTAVYYCAARRLLSTYWSDRSWDFWGQGTLVTVEPGGGGDKTHTCPPCPAPELLDGPSVFLFPPKPKDTLMISRTPEVTCVVVDVEHEDPEVKFNWYVDGVEVHNAKTKPREEQYNSTYRVVSVLTVLHQDWLNGKEYKCKVSNKAFPAPIEKTISKAKGQPREPQVYTLPPSREEMTKNQVSLTCLVKGFYPSDIAVEWESNGQPENNYKTTPPVLDSDGSFFLYSKLTVDKSRWQQGNVFSCSVMHEALHNHYTQKSLSLSPGK |  |  |  |  | 0.266 nM | 0.808 OD 650 | 0.11 nM | 0.873 OD 650 nm | 7.63 nM | 3.09 nM | no binding (tested: titrated from 1000 nM) | ~3.4 nM | Kd (human IgE [7]): 0.6 nM; koff (human IgE [7]): 0.000207 s⁻¹; kon (human IgE [7]): 373000 M⁻¹ s⁻¹; Kd (human IgE [8]): 1.1 nM; koff (human IgE [8]): 0.000258 s⁻¹; kon (human IgE [8]): 242000 M⁻¹ s⁻¹; Kd (human IgE [12]): 0.6 nM; koff (human IgE [12]): 0.000449 s⁻¹; kon (human IgE [12]): 422000 M⁻¹ s⁻¹; IC50 (human IgE [15]): 0.61 nM; binding result [17]: no binding |
| cx10710, comprising IgG1 SELF Fc (antibody, V domains shown, Conventional full length anti-IgE antibody with IgG1 SELF Fc; also called conventional antibody comparator; 710 (a derivative of Omalizumab); copies: 2 + 2) VH: QVQLQESGPGLVKPSETLSLTCAVSGYSITSGYSWNWIRQPPGKKLEWIGSITYDGSSNYNPSLKSRVTISRDTSKNQFSLKLSSVTAADTAVYYCARGSHYFGHWHFAVWGAGTLVTVSS VL: DIQLTQSPSSLSASVGDRVTITCRASQSVDYDGDSYMNWYQQKPGQPPKLLIYAASYLGSEIPARFSGSGSGTDFTLTISSLQPEDFATYYCQQSHEDPYTFGAGTKLEIKR | 0.814 OD 650 nm | no binding (tested: 200 nM) | 0.102 nM | ~2.1 nM | 0.127 nM | 0.95 OD 650 | 0.0585 nM | 0.946 OD 650 nm | 5.59 nM | 1.93 nM | no binding (tested: titrated from 1000 nM) | ~3.2 nM | IC50 (human IgE [18]): 2.71 nM; Bmax (human IgE [19]): 1.2 OD 650; Kd (human IgE [19]): 0.123 nM; Kd [20]: 0.288 nM; IC50 (human IgE [21]): 0.604 nM; Bmax [22]: 15000 Mean APC-A; Kd [22]: 6.17 nM; binding result [23]: no binding (tested: 250 nM) |
